How the values were obtained:
[1] = target: GG (GST - ICS linker - GFP model substrate for ICE) [GST: P08515]
[2] = target: GM (GST - ICE-site linker - MBP model substrate for ICE) [GST: P08515]
[3] = target: T1, ICS (14 mer epitope that is part of human pro-IL-1beta) (human); assay: method not stated; 'measured in a different context' from the protease experiment
T1 chain: NEAYVHDGPVRSLN

[4] = target: GG (GST - ICS linker - GFP model substrate for ICE) (human) [GST: P08515]
[5] = target: GG (GST - ICS linker - GFP model substrate for ICE) (human) [GST: P08515]; assay: cell-based or functional assay

GM (GST - ICE-site linker - MBP model substrate for ICE) [GST: P08515], sequence (P08515 whole entry, looked up): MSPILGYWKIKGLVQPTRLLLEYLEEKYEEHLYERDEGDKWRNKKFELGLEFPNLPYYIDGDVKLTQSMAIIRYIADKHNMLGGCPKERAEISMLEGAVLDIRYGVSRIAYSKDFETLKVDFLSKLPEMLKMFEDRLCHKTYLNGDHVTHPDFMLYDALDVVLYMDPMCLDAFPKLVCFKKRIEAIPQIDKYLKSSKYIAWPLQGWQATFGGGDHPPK
GG (GST - ICS linker - GFP model substrate for ICE) [GST: P08515], sequence (P08515 whole entry, looked up): as above

B1: interleukin converting enzyme (ICE) (protein)
chain: NPAMPTSSGSEGNVKLCSLEEAQRIWKQKSAEIYPIMDKSSRTRLALIICNEEFDSIPRRTGAEVDITGMTMLLQNLGYSVDVKKNLTASDMTTELEAFAHRPEHKTSDSTFLVFMSHGIREGICGKKHSEQVPDILQLNAIFNMLNTKNCPSLKDKPKVIIIQACRGDSPGVVWFKDSVGVSGNLSLPTTEEFEDDAIKKAHIEKDFIAFCSSTPDNVSWRHPTMGSVFIGRLIEHMQEYACSCDVEEIFRKVRFSFEQPDGRAQMPTTERVTLTRCFYLFPGH
cleavage of substrate by purified ICE [1]: Purified ICE cuts both the GG and GM substrates efficiently under these conditions | cleavage of substrate by purified ICE [2]: Purified ICE cuts both the GG and GM substrates efficiently under these conditions

B2: LEPB (peptide)
chain: KARKEAELAAATAEQ
modifications: not checked
Kd [3]: 2 µM

B3: synthetic LEPB (peptide, from a related filing)
peptide: KARKEAELAAATAEQ
IC50 (read off the curve), inhibition of ICE cleavage of GG [4]: 80 µM | IC50 of inhibition of the cleavage of GG by ICE [5]: 50 to 100 µM

From patent publication US7018801
